Assay results reported in patent publication US11851498B2, “Anti-CD276 antibodies (B7H3)” (THE UNITED STATES OF AMERICA, as represented by THE …, priority 2014, dated 2023).
Where two headings read alike, the source gives them in different places.

T1: human CD276 Ecto-domain (Homo sapiens, UniProt Q5ZPR3)
T1 construct: The human CD276 soluble extracellular domain was covalently immobilized onto a sensor chip (CM5)
T1 sequence (Q5ZPR3 29-466 limits assumed): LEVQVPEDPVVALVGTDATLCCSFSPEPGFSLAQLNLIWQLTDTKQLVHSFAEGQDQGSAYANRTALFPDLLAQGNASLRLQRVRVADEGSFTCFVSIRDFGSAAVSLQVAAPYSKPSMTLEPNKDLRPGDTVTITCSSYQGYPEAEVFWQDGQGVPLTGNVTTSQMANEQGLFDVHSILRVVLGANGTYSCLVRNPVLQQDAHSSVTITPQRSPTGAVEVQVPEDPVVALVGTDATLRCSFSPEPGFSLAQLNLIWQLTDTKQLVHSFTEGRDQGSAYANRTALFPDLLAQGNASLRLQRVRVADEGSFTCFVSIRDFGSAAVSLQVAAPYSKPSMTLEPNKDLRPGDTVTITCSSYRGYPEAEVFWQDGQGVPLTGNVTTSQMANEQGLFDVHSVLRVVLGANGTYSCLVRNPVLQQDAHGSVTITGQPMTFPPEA

T2: human CD276 expressed on the cell surface (CHO-huCD276) (Homo sapiens, UniProt Q5ZPR3)
T2 construct: expressed in transfected cells; host or cells: CHO cells
T2 sequence (Q5ZPR3 29-534): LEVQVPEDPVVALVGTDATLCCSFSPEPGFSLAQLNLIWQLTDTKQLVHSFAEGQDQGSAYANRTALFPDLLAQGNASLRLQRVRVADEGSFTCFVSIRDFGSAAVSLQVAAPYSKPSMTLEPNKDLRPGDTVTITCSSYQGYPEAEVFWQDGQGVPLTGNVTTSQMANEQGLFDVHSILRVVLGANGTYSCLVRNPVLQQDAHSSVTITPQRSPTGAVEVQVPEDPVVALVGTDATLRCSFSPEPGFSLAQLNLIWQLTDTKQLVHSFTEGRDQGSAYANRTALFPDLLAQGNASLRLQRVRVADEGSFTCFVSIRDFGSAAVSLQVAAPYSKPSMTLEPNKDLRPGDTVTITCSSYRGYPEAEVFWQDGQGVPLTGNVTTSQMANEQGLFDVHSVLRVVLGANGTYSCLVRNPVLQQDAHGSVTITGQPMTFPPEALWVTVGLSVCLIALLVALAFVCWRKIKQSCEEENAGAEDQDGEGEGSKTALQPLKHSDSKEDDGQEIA

T3: mouse CD276 expressed on the cell surface (CHO-msCD276) (Mus musculus, UniProt Q8VE98)
T3 construct: expressed in transfected cells; host or cells: CHO cells
T3 sequence (Q8VE98 29-316): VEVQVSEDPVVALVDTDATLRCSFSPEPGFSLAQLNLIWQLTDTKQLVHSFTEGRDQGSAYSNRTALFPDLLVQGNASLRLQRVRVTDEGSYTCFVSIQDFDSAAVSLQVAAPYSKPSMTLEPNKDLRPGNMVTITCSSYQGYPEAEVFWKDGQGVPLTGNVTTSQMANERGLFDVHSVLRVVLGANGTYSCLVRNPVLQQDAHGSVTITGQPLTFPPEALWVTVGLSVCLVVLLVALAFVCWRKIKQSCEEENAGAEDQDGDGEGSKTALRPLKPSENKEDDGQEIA


Key:
[1] = test system: human CD276-AP fusion protein; experiment: ELISA binding assay, human CD276; conditions: scFv-Fc fusion protein in culture medium, serially diluted; CD276-AP coated at 2 μg/ml; FIG. 1A
Protocol: (§1) The scFv-encoding inserts of the unique clones were digested with SfiI and ligated into modified pSecTag bearing the same set of SfiI sites and Fc-Avi tag for soluble expression. These constructs were transfected into 293T cells for expression following the manufacturer's protocol. After 72 hr of growth, the scFv-Fc fusion proteins in the culture medium were used for the ELISA binding assay.
(§2) 50 μl of the diluted human (FIG. 1A) or mouse (FIG. 1B) CD276-AP fusion protein in PBS at 2 μg/ml was coated in a 96-well plate at 4° C. overnight. Transiently expressed scFv-Fc fusion protein in the culture medium was serially diluted and added into the target protein coated wells. After washing, a 1:3000 diluted horseradish peroxidase (HRP) conjugated goat anti-human IgG antibody was added for 1 hr at RT. After washing, 3, 3, 5, 5′-Tetramethylbenzidine (TMB) substrate was added, and the optical density (O.D.) was read at 450 nm.

[2] = test system: mouse CD276-AP fusion protein; experiment: ELISA binding assay, mouse CD276; conditions: scFv-Fc fusion protein in culture medium, serially diluted; CD276-AP coated at 2 μg/ml; FIG. 1B
Protocol: as §1, §2

[3] = biological target: T1, human CD276 Ecto-domain; experiment: Affinity determination by surface plasmon resonance (Biacore X100); type: binding; conditions: scFv m8524; immobilized human CD276 soluble extracellular domain; 1:1 Langmuir fit; 25° C; FIG. 2
Protocol: Binding affinities of human anti-CD276 scFv m8524 to human CD276 Ecto-domain were analyzed by surface plasmon resonance technology using a Biacore X100 instrument (GE healthcare). The human CD276 soluble extracellular domain was covalently immobilized onto a sensor chip (CM5) using carbodiimide coupling chemistry. A control reference surface was prepared for nonspecific binding and refractive index changes. For analysis of the kinetics of interactions, varying concentrations of […] were injected at a flow rate of […] using running buffer containing 10 mM HEPES, 150 mM NaCl, 3 mM EDTA, and 0.05% Surfactant P-20 (pH 7.4). The association and dissociation phase data were fitted simultaneously to a 1:1 Langumir global model, using the nonlinear data analysis program BIAevaluation 3.2. All of the experiments were done at 25° C. The affinity of the antibody m8524 (m276) (comprising a heavy chain comprising SEQ ID NO: 26 and a light chain comprising SEQ ID NO: 27) is shown in FIG. 2.

[4] = biological target: T2, human CD276 expressed on the cell surface (CHO-huCD276); experiment: Flow cytometry binding to CHO cells expressing human CD276; type: cell-based; conditions: scFv-Fc, 1 μg/100 μl, FIG. 4
Protocol: (§3) Chinese hamster ovary (CHO) cells were untransduced or transduced to express mouse CD276 or human CD276. The cells were cultured with 1 μg/100 μl of the anti-CD276 scFv-Fc m8524 (m276) (SEQ ID NOs: 26 and 27) (primary antibody) and fluorescein isothiocyanate (FITC) Gt anti-human antibody (H+L) (as a secondary antibody). The binding of the anti-CD276 scFv-Fc m8524 (m276) to mouse or human CD276 expressed on the cell surface was measured by flow cytometry.

[5] = biological target: T3, mouse CD276 expressed on the cell surface (CHO-msCD276); experiment: Flow cytometry binding to CHO cells expressing mouse CD276; type: cell-based; conditions: scFv-Fc, 1 μg/100 μl, FIG. 4
Protocol: as §3

[6] = test system: HEK 293 cells (293); experiment: Cell viability of untransduced HEK 293 cells
Protocol: (§4) HEK 293 cells (293) or HEK 293 cells transduced with CD276 (293/CD276) were treated with MMAE alone, m8524 (m276) (SEQ ID NOs: 26 and 27) antibody alone, m825 (irrelevant control antibody)-ADC, or m8524-ADC. The drug of the ADCs was MMAE.

[7] = test system: 293/CD276 cells; experiment: Cell viability of HEK 293 cells transduced with CD276
Protocol: as §4

[8] = test system: HCT-116 human colon cancer xenografts; experiment: HCT-116 human colon cancer xenografts in athymic nude mice; type: in vivo; conditions: 1, 3, 10 or 30 mpk twice a week for three weeks; FIGS. 8 and 9
Protocol: Athymic nude mice bearing HCT-116 human colon cancer xenografts were treated with control (vehicle), m8524 (m276) (SEQ ID NOs: 26 and 27) alone (30 mg/kg (mpk)), or m8524 (m276)-MMAE ADCs at various dosages (1 mpk, 3 mpk, 10 mpk, or 30 mpk) twice a week for three weeks. Tumor volume was measured at various time points after administration.

[9] = test system: HT29 human colorectal adenocarcinoma xenografts; experiment: HT29 human colorectal adenocarcinoma xenografts in athymic nude mice; type: in vivo; conditions: 1, 3 or 10 mpk twice a week for three weeks; FIG. 10
Protocol: Athymic nude mice bearing HT29 human colorectal adenocarcinoma xenografts were treated with control (vehicle), m8524 (m276) (SEQ ID NOs: 26 and 27) alone (10 mg/kg (mpk)), or m8524 (m276)-MMAE ADCs at various dosages (1 mpk, 3 mpk, or 10 mpk) twice a week for three weeks. Tumor volume was measured at various time points after administration.

[10] = test system: KM12 human colon carcinoma xenografts; experiment: KM12 human colon carcinoma xenografts in athymic nude mice; type: in vivo; conditions: 1, 3 or 10 mpk twice weekly for 3 weeks, 2 day break, FIG. 11
Protocol: Athymic nude mice bearing KM12 human colon carcinoma xenografts were treated with control (vehicle), m8524 (m276) (SEQ ID NOs: 26 and 27) alone (10 mg/kg (mpk)), or m8524 (m276)-MMAE ADCs at various dosages (1 mpk, 3 mpk, or 10 mpk) twice weekly for 3 weeks, followed by a 2 day break, followed by another dose twice weekly for 3 weeks. Tumor volume was measured at various time points after administration.

[11] = test system: OVCAR3 human ovarian xenografts; experiment: OVCAR3 human ovarian xenografts in SCID mice; type: in vivo; conditions: 1, 3 or 10 mpk on days 1, 4, 8 and 11; FIGS. 12 and 15
Protocol: SCID mice bearing OVCAR3 human ovarian xenografts were treated with control (vehicle), m8524 (m276) (SEQ ID NOs: 26 and 27) alone (10 mg/kg (mpk)), MMAE alone (0.2 mpk), or m8524 (m276)-MMAE ADCs at various dosages (1 mpk, 3 mpk, or 10 mpk) on days 1, 4, 8 and 11. Tumor volume was measured at various time points after administration. The results are shown in FIG. 12 (up to Day 11) and FIG. 15 (up to Day 53).

[12] = test system: HCT116 cells; experiment: In vitro cell viability, HCT116; type: cell-based, human; conditions: various concentrations (nM), FIG. 13
[13] = test system: HT29 cells; experiment: In vitro cell viability, HT29; type: cell-based, human; conditions: various concentrations (nM), FIG. 13
[14] = test system: OVCAR3 cells; experiment: In vitro cell viability, OVCAR3; type: cell-based, human; conditions: various concentrations (nM), FIG. 13
[15] = test system: MDA-MB231 human breast cancer cells (mammary fat pad); experiment: MDA-MB231 human breast cancer orthotopic xenografts in athymic nude mice; type: in vivo; conditions: 1 mpk or 10 mpk twice weekly for 3 weeks; FIG. 16
Protocol: MDA-MB231 human breast cancer cells were implanted in the mammary fat pad of athymic nude mice (orthotopic model). Tumor-bearing mice were treated with control (vehicle), m8524 (m276) (SEQ ID NOs: 26 and 27) alone (10 mg/kg (mpk)), or m8524 (m276)-MMAE ADCs (at a dose of 1 mpk or 10 mpk) twice weekly for 3 weeks. Tumor volume was measured at various time points after administration.

| Molecule | binding to human CD276 (OD at 450 nm, ELISA) [1] | binding to mouse CD276 (OD at 450 nm, ELISA) [2] | Kd [3] | binding to human CD276 expressed on the cell surface (flow cytometry) [4] | binding to mouse CD276 expressed on the cell surface (flow cytometry) [5] | cytotoxicity (cell viability, % of control) [6] | cytotoxicity (cell viability, % of control) [7] | cytotoxicity (cell viability, % of control) ([6]; 293 cells (low CD276), various concentrations (nM), FIG. 7) | cytotoxicity (cell viability, % of control) ([7]; 293/CD276 cells (high CD276), various concentrations (nM), FIG. 7) | selectivity for CD276-expressing cells ([7]; 293/CD276 versus 293 cells, FIG. 7) | tumor volume as compared to control or m8524 (m276) alone [8] | tumor volume as compared to control or m8524 (m276) alone [9] | tumor volume as compared to control or m8524 (m276) alone [10] | tumor volume as compared to control, MMAE alone, or m8524 (m276) alone [11] | cell viability [12] | cell viability [13] | cell viability [14] | tumor volume as compared to control or m8524 (m276) alone [15] |
| --- | --- | --- | --- | --- | --- | --- | --- | --- | --- | --- | --- | --- | --- | --- | --- | --- | --- | --- |
| m8524: anti-CD276 antibody clone, heavy chain comprising SEQ ID NO: 26 and light chain comprising SEQ ID NO: 27 (antibody, V domains shown) VH: QVQLQQSGAEVKKPGSSVKVSCKASGGTFSSYAISWVRQAPGQGLEWMGGIIPILGIANYAQKFQGRVTITADESTSTAYMELSSLRSEDTAVYYCARGGSGSYHMDVWGKGTTVTVSS VL: EIVLTQSPATLSLSPGERATLSCRASQSVSSYLAWYQQKPGQAPRLLIYDASNRATGIPARFSGSGSGTDFTLTISSLEPEDFAVYYCQQRSNWPPRITFGQGTRLEIK | bound | bound | 0.049 nM | bound | bound | resistant to killing | resistant to killing |  |  |  |  |  |  |  |  |  |  |  |
| m8524-ADC: m8524 antibody conjugated to MMAE via a linking moiety; n is 2, 4, 6, or 8 (conjugate) VH: QVQLQQSGAEVKKPGSSVKVSCKASGGTFSSYAISWVRQAPGQGLEWMGGIIPILGIANYAQKFQGRVTITADESTSTAYMELSSLRSEDTAVYYCARGGSGSYHMDVWGKGTTVTVSS VL: EIVLTQSPATLSLSPGERATLSCRASQSVSSYLAWYQQKPGQAPRLLIYDASNRATGIPARFSGSGSGTDFTLTISSLEPEDFAVYYCQQRSNWPPRITFGQGTRLEIK |  |  |  |  |  |  |  | selectively cytotoxic | selectively cytotoxic | toxicity corresponding to CD276 expression levels | decreased | decreased | decreased | decreased | decreased | decreased | decreased | decreased |
